Assay results published in publication PMC11997335.
Like-named read-outs stand apart in the source and are kept apart here.

Tests used:
Test in all cases: single-molecule TIRF real-time association assay
[1] = target: human cytoplasmic dynein-1 complex (human) (UniProt Q14204)
[2] = target: human cytoplasmic dynein-1 complex (human) (UniProt Q14204); remark: listed apart in the source
[3] = target: human cytoplasmic dynein-1 complex (human) (UniProt Q14204); remark: listed apart in the source

Substance	koff [1] [s⁻¹]	percent of complexes long-lived (>80 s) [1] [%]	fraction of dynein molecules bound by the end of data acquisition [2] [%]	koff [2] [s⁻¹]	percent of complexes long-lived (>80 s) [2] [%]	percent of complexes medium-lived (20–80 s) [2] [%]	percent of complexes short-lived (<20 s) [2] [%]	kon [3] [M⁻¹ s⁻¹]	dwell time, major peak [1] [s]	kon [1] [M⁻¹ s⁻¹]	percent of binding events short-lived (<20 s) [1] [%]	percent of complexes medium-lived (20–80 s) [1] [%]	percent of complexes short-lived (<20 s) [1] [%]
BicD2 (amino acids 1–598) with N-terminal HaloTag (from UniProt Q8TD16 1-598) (domain or fragment)	0.137	37	< 25	0.038	6	22	72	–	–	–	–	–	–
NINL (amino acids 1–702) with N-terminal HaloTag (from UniProt Q9Y2I6 1-702) (domain or fragment)	0.0627	16	60	–	–	–	–	7.97e+06	5	9.21e+06	32	37	47
dynactin complex purified from HEK293T cells stably expressing p62-Halo-3xFLAG (from UniProt Q9UJW0;Q14203;P61163)	–	9	–	–	–	–	–	–	5	–	30	22	69
